Assay results from the RNAGym collection of RNA variant scans (doi:10.1073/pnas.2313332121).

B1: TPR t1 (parent)
chain: GACCAAUCUGCCCUCAGAGCUCGAGAACAUCUUCGGAUGCAGAGGAGGCAGGCUUCGGUGGCGCGAUAGCGCCAACGUCCUCAACCUCCAAUGCAUCCCACCACAUGAUGAUGCCUGAAGAGCCUUGGUUUUUUG

Variants of: B1
Assay: polymerase ribozyme fitness, log enrichment relative to wild type (log ratio); higher = more active; in vitro selection for triplet polymerase activity
Method in brief: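 Both subunits of a heterodimeric triplet polymerase ribozyme were given their own mutant library, built by PCR and transcribed. Each library was annealed with a biotinylated primer, the partner subunit and triplets, incubated frozen at −7 °C, and its extended constructs gel-excised, captured on streptavidin beads and amplified by RT-PCR, all in one round done in triplicate. Fitness is the logarithm of genotype enrichment relative to wild-type enrichment, with replicates averaged by inverse-variance weighting. That logarithm is base 2, and Illumina-sequenced genotypes needed ≥10 input reads and ≥1 read per output.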

Point of comparison: GACCAAUCUGCCCUCAGAGCUCGAGAAAAUCUUCGGAUUCAGAGGAGGCAGGCUUCGGUGGCGUGAUAGCGCCAACGUCCUCAACCUCCAAUGCAUCCCACCAAAUGAUGAUGCCUGAGGAGCCUUGGUUUUUUG [C28A G39U C64U C104A A119G], “polymerase ribozyme fitness (log ratio)” value -5.82. Against it:
- GACCAAUCUGCCCUCAGAGCUCGAGAAGAUCUUCGGAUGCAGAGGAGGGAGACUUCGGUGGCGCGAUAGCGCCAACGUCCUCAACCUCCAAUGCAUCCCACCACAUGAUGAUGCCUGAAAAGCCUUGGUUUUUUG [C28G C49G G52A G120A] — higher, -4.24
- GACCAAUCUGCCCUCAGAGCUCGAGAAAAUCUUCGGAUGCAGAAGAGACAGGCUUCGGUGGCGCGAUAGCGCUAACGUCCUCAACCUCCAAUGCAUCCCACCACAAGAUGAUGCCUGAAGAGCCUUGGUUUUUUG [C28A G44A G48A C73U U106A] — within 0.2 log units, -5.87
- GACCAAUCUGCCCUCAGAGCUCGAGAAAAUCUUCGGAUGCAGAGGAGGCAGGCUUCGGUCGCGCGAUAGCGCCAACGUCCUCAACCUCCAAUGCAUCCCACCACAUGAUGAUGCCUGAAGAGCCUUGGUUUUUUG [C28A G60C] — higher, -4.02
- GACCAAUCUGCCCUCAGAGCUCGAGAAAAUCUUCGGAUGCAGAGGAGGCAGGCUUCGGUGGCCCGAUAGCGCCAACGUCCUCAACCUCCAAUGCAUCCCACCACAUGAUGAUGCCUGAAGAGCCUUGGUUUUUUG [C28A G63C] — higher, -4.91
- GACCAAUCUGCCCUCAGAGCUCGAGAAAAUCUUCGGAUGCAGAGGAGGCAGGCUUCGGUGGCGCGAUAGCGCCAACGUCCUCAACCUCCAAUGCAUCCUACCACAAGAUGAUGCCUGAAGAGCCUUGGUUUUUUG [C28A C99U U106A] — higher, -5.34
- GACCAAUCUGCCCUCAGAGCUCGAGAAGAUCUUCGGAUGUAGAGGAGGCAGGUUUGGGUGGCGCGAUAGCGCCAACGUCCUCAACCUCCACUGCAUCCCACCACAUGAUGAUGCUUGAAGAGCCUUGGAUUUUUG [C28G C40U C53U C56G A91C C115U U129A] — higher, -5.15
- GACCAAUCUGCCCUCAGAGCUCGAGAAGAUCUUCGGAUGCAGAGGGGGCAGGCUUCGGUGGCGCGAUAGCGCCAACGUCCUCAACCUCCAAUGCAUCCCACCACAUGAUGAUGCCUGAAAAGCCUUGGUAUUUUG [C28G A46G G120A U130A] — higher, -2.51
- GACCAAUCUGCCCUCAGAGCUCGAGAAGUUCUUCGGAUGCAGAGGAGGCAGGCUUCGGUGGCGCGAUAGCGCCAACGUCCUCAACCUCCAAUGCAUCCCACCACAUGAUGAUGGCUGAAGAGCCUUCGUUUUUUG [C28G A29U C114G G127C] — within 0.2 log units, -5.87
- GACCAAUCUGCCCUCAGAGCUCGAGAAGAUCUUCGGAUGCAGAGGAGGCCGGCUUCGGUGGCGCGAUAGCGCCAACGUCCUCAACCACCAAUGCAUCCCACCACAUGAUGAUGCCUGAAGAGCCUUGGUUUUUUG [C28G A50C U87A] — higher, -3.39
- GACCAAUCUGCCCUCAGAGCUCGAGAAAAUCUUCGGAUGCAGAGGAGGCAGGCUUCGGUGGCGCGAUAGCGCCAACGUCCUCAAUCUCCAAUGCAUCCCACCACAUGAUGAUGCCUGAAGUGCCUUGGUUUUUUG [C28A C85U A121U] — higher, -3.69
- GACCAAUCUGCCCUCAGAGCUCGAGAAGAUCUUCGGAUGCAGAGGAGGCAGGCUUCGGUGGCGCGAUAGCGCCAACGUCCUCAACCUCCAAUGCUUCCCACCACAUGAUCCUGCCUGAAGAGCCUUGGUUUUAUG [C28G A95U G110C A111C U133A] — higher, -1.6
- GACCAAUCUGCCCUCAGAGCUCGAGAAAAUCUUCGGAUGCAGAGGAGGCAGGCUUCGGUGGCGCGAUAGCGCCAACGUCCUCAACCUCCAAUGCAUCCCACCACAUGAUGAUGCCUGAAGAGCACUUGUUUUUUG [C28A C124A U125C G127U] — higher, -3.12
- GACCAAUCUGCCCUCAGAGCUCGAGAAGAUCUUCGGAUGAAGAGGAGGCAGGCUUCGGUGGCGCGAUAGCACCAACGUCCUCAACCUCCAAUGUAUCCCACCACAUGAUCAUGCCUGAAGAGCCUUGGUUUUUUG [C28G C40A G71A C94U G110C] — higher, -1.03
- GACCAAUCUGCCCUCAGAGCUCGAGAAAAUCUUCGGAUGCAGAGGAGGCAGGCUUCGGUGGCGCGAUAGCGCCAACGUCCUCAACCUCCAAUGCAUCCCACCACAUGAUGAUGCCUGAAGAGCUUUGGUUUUUUG [C28A C124U] — higher, -2.12
- GACCAAUCUGCCCUCAGAGCUCGAGAAGAUCUUCGGAUGGAGAGGAGUCAGGUUUCGGUGGCGCGAUAGCGCCAACGUCCUCAACCUCCAAUGCAUCCCACCACAUGAUGAUGCCUGAAGAGCCUUGGUUUUUUG [C28G C40G G48U C53U] — higher, -3.75
- GACCAAUCUGCCCUCAGAGCUCGAGAAAAUCUUCGGAUGCAGAGGAGGCAGGCUUCGGUUGCGCGAUAGCGCCUACGUCCUCCACCUCCAAUGCAUCCCACCACAUGAUGAUUCCUGAAGAGCCUUGGUUUUUUG [C28A G60U A74U A83C G113U] — lower, -6.48
- GACCAAUCUGCCCUCAGAGCUCGAGAAAAUCUUCGGAUGCAGAGGAGGCAGGCUUCGGUGGCGCGAUAGCGCCAACGUCCUCAACCUGCAAUGCAUCCCACCACAUGAUGAUGCCUGAAGAGCCUUGGUUUUUUG [C28A C88G] — higher, -4.25
- GACCAAUCUGCCCUCAGAGCUCGAGAAAAUCUUCGGAUGCAGAGAAGGCAGGUUUCGGUGACGCGAUAGCGCCAACGUCCUCAACCUCCAAUGCAUCCCACCACAUGAUCAUGCCUGAAGAGCCUUGGUUUUUUG [C28A G45A C53U G61A G110C] — higher, -1.65
- GACCAAUCUGCCCUCAGAGCUCGAGAAGAUCUUCGGAUGCAGAGGAGGCCGGCUUCGGUGACGCGAUAGCGCCAACGUCCUCAACCUACAAUGCAUCCCACCACAUGAUGAUGCCUGAAGAGCCUUGGUUUUUUG [C28G A50C G61A C88A] — higher, -3.77
- GACCAAUCUGCCCUCAGAGCUCGAGAAAAUCCUCGGAUGCAGAGGAGGCAGGCUUCGGUGGCGCGAUAGCGCCAACGUCCUCAACCUCCAAUGCAUCCCACCACAUGAUGAUGCCUGAAGAGCCUUGGUUUUUUG [C28A U32C] — higher, -3.9
